Biological target: T1, 人BCMA-His抗原 (ACRO, Cat#BCA-H522y) (human, UniProt Q02223 1-54)
T1 construct: Bought reagent; Coated on the ELISA plate at 2 ug/ml; also called 人BCMA蛋白; 人BCMA抗原; not shown: His tag
T1 sequence (looked up): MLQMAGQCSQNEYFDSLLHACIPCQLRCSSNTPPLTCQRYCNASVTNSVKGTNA
Test: indirect ELISA, human BCMA-His coated at 2 ug/ml, detection with HRP goat anti-human Fc gamma

binding result: binds
B1: BCMA-VHH-1F7纳米抗体 (抗人BCMA纳米抗体, 含有Fc tag) (Fc fusion)
chain: EVQLVESGGGLVQAGGSLRLSCAASGGTFNNDNVGWFRQAPGKEREFVAVISWRGDGTDYADSVKGRFTISRDYAKKMVYLQMNSLQPKDTAVYYCAVGDGSRWHGAYAYWGQGTRVTVSS
notes: Expressed in Expi293F cells with an Fc tag and purified on Protein A or G; detected with anti-human Fc gamma, about 35 kDa on SDS-PAGE; also called 抗BCMA纳米抗体; not shown: Fc tag

— patent CN112538115A (BIOSION BIO TECH NANJING CO LTD, dated 2021)
